Source: the supplement of paper PMC10567573

B1: NP_116010.1 (parent)
chain: HSLRAVSTDPPHHDHHDEFCLMP

Columns and labels:
[1] = variants of: B1; assay: protein stability index of a GFP-peptide fusion (GPS, HEK-293T) (PSI 1-6); higher = more stable; details: c terminus: native
[2] = variants of: B1; assay: as above; details: c terminus: native; remark: listed apart in the source

| Variant | protein stability index [1] | protein stability index [2] |
| --- | --- | --- |
| HSLRAVSTDPPHHDHLDEFCLMP [H16L] | 2.61 | 2.4 |
| HSLRAVSTDPPHHDHSDEFCLMP [H16S] | 2.54 | 2.61 |
| HSLRAVSTDPPHHDHADEFCLMP [H16A] | 2.9 | 2.52 |
| HSLRAVSTDPPHHDHDDEFCLMP [H16D] | 2.64 | 2.29 |
| HSLRAVSTDPPHHDHTDEFCLMP [H16T] | 2.69 | 2.58 |
| HSLRAVSTDPPHHDHEDEFCLMP [H16E] | 3.25 | 2.84 |
| HSLRAVSTDVPHHDHHDEFCLMP [P10V] | 2.29 | 2.25 |
| HSLRAVSTDQPHHDHHDEFCLMP [P10Q] | 2.56 | 2.28 |
| HSLRAVSTDEPHHDHHDEFCLMP [P10E] | 2.77 | 2.47 |
| HSLRAVSTDWPHHDHHDEFCLMP [P10W] | 2.37 | 2.88 |
| HSLRAVSTDLPHHDHHDEFCLMP [P10L] | 2.43 | 3.21 |
| HSLRAVSTDYPHHDHHDEFCLMP [P10Y] | 2.4 | 2.47 |
| HSLRAVSTDAPHHDHHDEFCLMP [P10A] | 2.38 | 2.39 |
| HSLRAVSTDHPHHDHHDEFCLMP [P10H] | 2.43 | 2.57 |
| HSLRAVSTDIPHHDHHDEFCLMP [P10I] | 2.48 | 3.15 |
| HSLAAVSTDPPHHDHHDEFCLMP [R4A] | 3.09 | 1.82 |
| HSLKAVSTDPPHHDHHDEFCLMP [R4K] | 2.58 | 1.8 |
| HSLCAVSTDPPHHDHHDEFCLMP [R4C] | 2.69 | 3.21 |
| HSLVAVSTDPPHHDHHDEFCLMP [R4V] | 2.23 | 1.96 |
| HSLRAVSTDPPHHDHHDEMCLMP [F19M] | 2.46 | 2.6 |
| HSLRAVSTDPPHHDHHDEKCLMP [F19K] | 2.87 | 1.59 |
| HSLRAVSTDPPHHDHHDEACLMP [F19A] | 2.57 | 3.6 |
| HSLRAVSTDPPHHDHHDEYCLMP [F19Y] | 2.54 | 2.33 |
| HSLRAVSTDPPHHDHHDTFCLMP [E18T] | 2.72 | 2.2 |
| HSLRAVSTDPPHHDHHDEFHLMP [C20H] | 3.74 | 2.41 |

| Variant | protein stability index [1] | protein stability index [2] |
| --- | --- | --- |
| HSLRAVSTDPPHHDHHDEFILMP [C20I] | 4.33 | 3.11 |
| HSLRAVSTDPPHHDHHDEFSLMP [C20S] | 2.48 | 2.35 |
| HSLRAVSTDPPHHDHHDEFVLMP [C20V] | 4.51 | 3.09 |
| HSLRAVSTDPPHHDHHDEFFLMP [C20F] | 4.5 | 3.54 |
| HSLRAVSTDPLHHDHHDEFCLMP [P11L] | 2.55 | 4.46 |
| HSLRAVSTDPAHHDHHDEFCLMP [P11A] | 2.67 | 2.67 |
| HSLRAVSTDPWHHDHHDEFCLMP [P11W] | 2.16 | 2.29 |
| HSLRAVSTDPPHTDHHDEFCLMP [H13T] | 2.46 | 2.38 |
| HSLRAVSTDPPHKDHHDEFCLMP [H13K] | 2.33 | 2.31 |
| HSLRAVSTDPPHCDHHDEFCLMP [H13C] | 2.58 | 2.89 |
| HSLRAVSTDPPHADHHDEFCLMP [H13A] | 2.31 | 2.86 |
| HSLRAVSTDPPRHDHHDEFCLMP [H12R] | 2.32 | 2.76 |
| HSLRAVSTDPPGHDHHDEFCLMP [H12G] | 2.68 | 2.16 |
| HSLRAVSTDPPKHDHHDEFCLMP [H12K] | 2.87 | 3.08 |
| HSLRAVSTDPPAHDHHDEFCLMP [H12A] | 2.44 | 1.65 |
| HSLRAVSTDPPVHDHHDEFCLMP [H12V] | 2.73 | 2.67 |
| HSLRAVSTDPPFHDHHDEFCLMP [H12F] | 2.62 | 2.49 |
| HSLRAVSTDPPCHDHHDEFCLMP [H12C] | 2.37 | 2.4 |
| HSLRAVSEDPPHHDHHDEFCLMP [T8E] | 2.45 | 2.89 |
| HSLRAVSQDPPHHDHHDEFCLMP [T8Q] | 2.46 | 2.69 |
| HSLRAVSFDPPHHDHHDEFCLMP [T8F] | 2.38 | 1.87 |
| HSLRAVSHDPPHHDHHDEFCLMP [T8H] | 2.48 | 1.79 |
| HSLRAVSTDPPHHDMHDEFCLMP [H15M] | 2.56 | 2.16 |
| HSLRAVSTDPPHHDTHDEFCLMP [H15T] | 2.58 | 1.86 |
| HSLRAVSTDPPHHDYHDEFCLMP [H15Y] | 2.53 | 1.84 |

| Variant | protein stability index [1] | protein stability index [2] |
| --- | --- | --- |
| HSLRAVSTDPPHHDLHDEFCLMP [H15L] | 2.33 | 1.7 |
| HSLRAVSTDPPHHDHHDEFCLVP [M22V] | 2.95 | 2.75 |
| HSLRAVSTDPPHHFHHDEFCLMP [D14F] | 1.99 | 1.83 |
| HSLRAVSTDPPHHWHHDEFCLMP [D14W] | 1.97 | 1.87 |
| HSLRAVSTDPPHHLHHDEFCLMP [D14L] | 2.02 | 2.33 |
| HSLRAVSTDPPHHQHHDEFCLMP [D14Q] | 2.45 | 2.61 |
| HSLRAVSTDPPHHIHHDEFCLMP [D14I] | 1.8 | 3.58 |
| HSLRAVSTDPPHHGHHDEFCLMP [D14G] | 2.23 | – |
| HSLRAVSTDPPHHSHHDEFCLMP [D14S] | 2.23 | 2.34 |
| HSLRVVSTDPPHHDHHDEFCLMP [A5V] | 2.37 | 3.93 |
| HSLRDVSTDPPHHDHHDEFCLMP [A5D] | 3.02 | 1.7 |
| HSLRSVSTDPPHHDHHDEFCLMP [A5S] | 2.87 | 2.34 |
| HSLRAVSTDPPHHDHHWEFCLMP [D17W] | 2.1 | 3.5 |
| HSLRAVSTDPPHHDHHLEFCLMP [D17L] | 2.54 | 2.72 |
| HSLRAVSTDPPHHDHHHEFCLMP [D17H] | 2.21 | – |
| HSLRAVSTDPPHHDHHAEFCLMP [D17A] | 2.44 | 1.76 |
| ISLRAVSTDPPHHDHHDEFCLMP [H1I] | 2.75 | 1.82 |
| KSLRAVSTDPPHHDHHDEFCLMP [H1K] | 3.29 | 2.43 |
| ESLRAVSTDPPHHDHHDEFCLMP [H1E] | 3.5 | 2.41 |
| WSLRAVSTDPPHHDHHDEFCLMP [H1W] | 2.18 | 1.93 |
| HSLRAVWTDPPHHDHHDEFCLMP [S7W] | 2.31 | 3.98 |
| HSLRAVTTDPPHHDHHDEFCLMP [S7T] | 2.33 | 3.06 |
| HSLRAVMTDPPHHDHHDEFCLMP [S7M] | 2.74 | 2.65 |
| HSLRAVGTDPPHHDHHDEFCLMP [S7G] | 2.58 | 2.83 |
| HSLRAVSTYPPHHDHHDEFCLMP [D9Y] | 2.37 | 2.37 |

| Variant | protein stability index [1] | protein stability index [2] |
| --- | --- | --- |
| HSVRAVSTDPPHHDHHDEFCLMP [L3V] | 2.75 | 1.7 |
| HSNRAVSTDPPHHDHHDEFCLMP [L3N] | 3.45 | 2.59 |
| HSIRAVSTDPPHHDHHDEFCLMP [L3I] | 2.39 | 3.18 |
| HSLRAVSTDPPHHDHHDEFCNMP [L21N] | 3.18 | 2.84 |
| HSLRAVSTDPPHHDHHDEFCTMP [L21T] | 3.14 | 2.47 |
| HSLRAVSTDPPHHDHHDEFCEMP [L21E] | 3.53 | 2.51 |
| HSLRAVSTDPPHHDHHDEFCRMP [L21R] | 2.33 | 1.99 |
| HSLRAVSTDPPHHDHHDEFCFMP [L21F] | 2.21 | 2.37 |
| HSLRAVSTDPPHHDHHDEFCVMP [L21V] | 2.66 | 2.53 |
| HSLRAVSTDPPHHDHHDEFCLME [P23E] | 4.61 | 3.77 |
| HSLRAVSTDPPHHDHHDEFCLML [P23L] | 3.24 | 2.66 |
| HSLRAVSTDPPHHDHHDEFCLMT [P23T] | 3.02 | 1.75 |
| HSLRAVSTDPPHHDHHDEFCLMR [P23R] | 3.16 | 2.45 |
| HSLRAVSTDPPHHDHHDEFCLMM [P23M] | 3.17 | 2.12 |
| HSLRAVSTDPPHHDHHDEFCLMI [P23I] | 2.44 | – |
| HSLRAVSTDPPHHDHHDEFCLMW [P23W] | 2.97 | 2.19 |
| HSLRAVSTDPPHHDHHDEFCLMC [P23C] | 3.58 | 2.32 |
| HMLRAVSTDPPHHDHHDEFCLMP [S2M] | 2.41 | 2.38 |
| HHLRAVSTDPPHHDHHDEFCLMP [S2H] | 2.69 | 1.95 |
| HLLRAVSTDPPHHDHHDEFCLMP [S2L] | 2.53 | 2.93 |
| HRLRAVSTDPPHHDHHDEFCLMP [S2R] | 2.73 | 1.58 |
| HKLRAVSTDPPHHDHHDEFCLMP [S2K] | 2.58 | 1.89 |
| HYLRAVSTDPPHHDHHDEFCLMP [S2Y] | 2.5 | 3.18 |
| HNLRAVSTDPPHHDHHDEFCLMP [S2N] | 3.12 | 2.72 |
